According to IntAct's records for PubMed 37020021:

Target: T1, ncbp1_human NCBP1 (UniProt Q09161)
T1 sequence: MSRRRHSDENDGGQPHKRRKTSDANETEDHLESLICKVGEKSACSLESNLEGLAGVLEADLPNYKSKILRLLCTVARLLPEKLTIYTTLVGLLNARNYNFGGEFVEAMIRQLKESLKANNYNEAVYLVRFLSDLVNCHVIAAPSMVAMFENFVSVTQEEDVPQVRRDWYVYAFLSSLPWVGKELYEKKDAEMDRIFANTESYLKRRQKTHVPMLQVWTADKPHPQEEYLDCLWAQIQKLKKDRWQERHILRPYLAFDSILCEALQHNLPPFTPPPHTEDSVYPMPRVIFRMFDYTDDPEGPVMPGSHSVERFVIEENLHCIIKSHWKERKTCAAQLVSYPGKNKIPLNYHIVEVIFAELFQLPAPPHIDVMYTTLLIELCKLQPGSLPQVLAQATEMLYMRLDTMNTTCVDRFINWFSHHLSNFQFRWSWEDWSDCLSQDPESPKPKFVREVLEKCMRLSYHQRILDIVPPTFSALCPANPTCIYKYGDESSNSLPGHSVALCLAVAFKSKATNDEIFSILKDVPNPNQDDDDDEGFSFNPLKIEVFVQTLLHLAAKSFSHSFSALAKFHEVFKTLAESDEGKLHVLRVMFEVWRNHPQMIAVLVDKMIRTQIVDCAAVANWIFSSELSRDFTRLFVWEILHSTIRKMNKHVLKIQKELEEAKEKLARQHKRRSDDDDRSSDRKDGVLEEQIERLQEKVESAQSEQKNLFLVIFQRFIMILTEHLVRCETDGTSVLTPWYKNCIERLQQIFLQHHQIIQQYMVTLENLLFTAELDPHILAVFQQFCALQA

Which “effect of a mutation on the interaction” value does the source give for “THO complex subunit 4 (Homo sapiens) (from UniProt Q86V81) V169A” here?
Its value is “decreasing interaction strength”.

Which “effect of a mutation on the interaction” value does the source give for “THO complex subunit 4 (Homo sapiens) (from UniProt Q86V81) F115S” here?
The value was “decreasing interaction strength”.

For “THO complex subunit 4 (Homo sapiens) (from UniProt Q86V81) P170A”, which “effect of a mutation on the interaction” value is on record?
The value was “decreasing interaction strength”.

Which “effect of a mutation on the interaction” value does the source give for “THO complex subunit 4 (Homo sapiens) (from UniProt Q86V81) Q165E” here?
The value was “decreasing interaction strength”.
